How the values were obtained:
[1] = SDS/2% agarose multimer gel of plasma, densitometry; conditions: glycan lost; control: WT mVwf cDNA
[2] = plasma VWF:Ag ELISA after hydrodynamic injection in VWF-/- mice; conditions: glycan lost; control: WT mVwf cDNA
[3] = whole-blood perfusion over collagen, 2500 s-1, platelet coverage; conditions: glycan lost; control: blood of WT-VWF expressing mice
[4] = VWF antigen ELISA, COS-7 supernatant; conditions: glycan lost; control: WT mVwf
[5] = VWF antigen ELISA, COS-7 lysate (intracellular retention); conditions: glycan lost; control: WT mVwf
[6] = in vivo NHS-biotin labelling, residual biotinylated VWF in plasma; conditions: glycan lost; control: WT-mVWF

Row | Substance | oligomerisation [1] | expression_or_secretion, other: VWF:Ag, % of normal murine plasma [2] | other: thrombus formation on collagen under flow, other: platelet surface coverage [3] | expression_or_secretion [4] | localisation_or_trafficking [5] | degradation_or_half_life, half_life [6]
1 | murine VWF (mVWF): S1486A | no change | no change | decreases, 11.6±1.0 vs 15.8±0.9 | – | – | –
2 | murine VWF (mVWF): S1486A/S1487A | no change | no change | – | – | – | –
3 | murine VWF (mVWF): S1487A | no change | no change | – | – | – | –
4 | murine VWF (mVWF): T1248A | no change | no change | – | – | – | –
5 | murine VWF (mVWF): T1248A/T1255A/T1256A (cluster 1) | no change | no change | – | – | – | –
6 | murine VWF (mVWF): T1255A | no change | no change | decreases, 8.2±1.2 vs 15.8±0.9 | – | – | –
7 | murine VWF (mVWF): T1255A/T1256A | no change | decreases, 432±55 vs 833±76 | decreases, 6.0±0.9 vs 15.8±0.9 | no change | no change | decreases, 3.0±0.3 vs 6.1±1
8 | murine VWF (mVWF): T1256A | no change | no change | decreases, 6.4±1.2 vs 15.8±0.9 | – | – | –
9 | murine VWF (mVWF): T1468A | no change | no change | – | – | – | –
10 | murine VWF (mVWF): T1468A/T1477A/S1486A/S1487A (cluster 2) | no change | no change | – | – | – | –
11 | murine VWF (mVWF): T1477A | no change | no change | – | – | – | –
12 | murine VWF (mVWF): T1679A | no change | no change | – | – | – | –
13 | murine VWF (mVWF): T2298A | no change | no change | – | – | – | –

— publication PMC3355127
